From paper PMC12005789, “Geniposidic Acid Targeting FXR “S332 and H447” Mediated Conformational Change to Upregulate CYPs and miR‐19a‐3p to Ameliorate Drug‐Induced Liver Injury” (Advanced Science, 2025)
Ends that are not written are not given here.

Assays:
[1] = target: T1, Farnesoid X receptor (FXR) (Homo sapiens, UniProt Q96RI1); experiment: SPR (Biacore T200, CM5 chip with FXR LBD WT); supported by DSF, CETSA and AlphaScreen; type: binding
T1 construct: gene NR1H4; human FXR LBD (residues 248–486), N-terminal 8×His-Tag
T1 sequence (Q96RI1 248-486): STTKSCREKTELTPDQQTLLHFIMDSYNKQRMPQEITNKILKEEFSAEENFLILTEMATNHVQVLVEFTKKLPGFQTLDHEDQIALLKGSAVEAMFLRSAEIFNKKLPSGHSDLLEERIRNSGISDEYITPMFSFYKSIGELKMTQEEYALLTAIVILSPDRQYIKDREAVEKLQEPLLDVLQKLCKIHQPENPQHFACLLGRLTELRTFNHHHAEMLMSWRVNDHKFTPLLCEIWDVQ

[2] = target: T2, human FXR LBD wild-type recombinant protein (human); experiment: SPR; with GPA
T2 chain: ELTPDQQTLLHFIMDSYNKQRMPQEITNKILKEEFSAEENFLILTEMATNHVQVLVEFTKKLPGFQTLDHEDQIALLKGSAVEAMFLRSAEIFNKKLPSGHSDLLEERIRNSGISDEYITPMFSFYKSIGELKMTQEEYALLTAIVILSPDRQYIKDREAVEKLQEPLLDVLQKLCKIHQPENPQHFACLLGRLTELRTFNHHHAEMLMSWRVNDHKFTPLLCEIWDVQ

[3] = target: T3, human FXR LBD H447A recombinant protein (human); experiment: SPR; with GPA
T3 chain: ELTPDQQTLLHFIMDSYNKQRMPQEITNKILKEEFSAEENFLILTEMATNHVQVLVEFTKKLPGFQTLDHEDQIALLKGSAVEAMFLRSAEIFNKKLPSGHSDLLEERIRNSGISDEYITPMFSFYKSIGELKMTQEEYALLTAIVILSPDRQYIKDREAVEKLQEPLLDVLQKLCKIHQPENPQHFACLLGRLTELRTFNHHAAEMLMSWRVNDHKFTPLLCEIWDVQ

[4] = target: T2, human FXR LBD wild-type recombinant …; experiment: SPR; with GW4064

For `O=C(O)C1=CO[C@@H](O[C@@H]2O[C@H](CO)[C@@H](O)[C@H](O)[C@H]2O)[C@@H]2C(CO)=CC[C@H]12` [GPA, Geniposidic acid], which Kd [1] is on record?
The Kd was 390 nM.

B1: SRC2-3 biotinylated cofactor peptide (peptide)
peptide: QEPVSPKKKENALLRYLLDKDDTKD
modifications: also: biotinylated (position not given here)
With B1 as the molecule, how does the Kd [2] read?
The Kd was 533 nM.

What about the Kd [3] of the same molecule?
Its Kd is 355000 nM.

And the Kd [4]?
The Kd was 185 nM.
